Assay [1] deals with T1, biotinylated human CD47 (IgSF domain, residues 1-117, C15G) (human, UniProt Q08722 19-135, biotinylated in vitro with BirA ligase on the biotin acceptor peptide tag).
T1 construct: range 1-117; Captured on a Biacore SA chip; also called biotinylated CD47
The experiment in a line: SPR (Biacore T100), biotinylated CD47 on SA chip, 1:1 Langmuir model. (In general: SPR reads the build-up and loss of mass on a sensor chip optically.)

For assay [2], the target named is T2, CD47 on the surface of GFP-luciferase+ DLD1-Tg cells (UniProt Q08722 19-323, limits assumed).
T2 construct: whole, on cells; also called CD47+ cells; CD47+ PD-L1+ cells
T2 sequence (Q08722 19-323 limits assumed): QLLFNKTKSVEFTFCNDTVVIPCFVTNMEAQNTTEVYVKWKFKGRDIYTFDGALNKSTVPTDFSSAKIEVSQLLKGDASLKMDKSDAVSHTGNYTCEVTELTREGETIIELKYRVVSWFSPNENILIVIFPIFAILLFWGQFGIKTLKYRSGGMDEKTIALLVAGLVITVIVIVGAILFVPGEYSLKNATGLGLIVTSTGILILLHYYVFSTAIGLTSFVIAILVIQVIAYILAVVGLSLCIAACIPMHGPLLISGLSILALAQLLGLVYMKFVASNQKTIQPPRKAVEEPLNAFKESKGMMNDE

In assay [3] the target is T3, CD47 on human cells (CD47+, PDL1+).
T3 construct: These cells also carry human PD-L1; also called HL60-Tg(hPDL1, GFP) cells isolated from the spleen; human CD47+ PDL1+ cells
T3 sequence (chain, as listed by the source limits assumed): as the sequence (Q08722 19-323 limits assumed) above
Kind of assay: in vivo receptor occupancy: NSG mice injected with GV3 on three consecutive days, spleen cells harvested 1 hr and 24 hrs after the last injection, free CD47 read by SIRPA-tetramer binding (FACS) on human HL60-Tg(hPDL1, GFP) cells.

Assay [4] deals with T4, CD47 on mouse splenocytes (mouse, UniProt Q61735).
T4 construct: cell surface, full length; also called % occupied CD47
T4 sequence (receptor on cells, looked up): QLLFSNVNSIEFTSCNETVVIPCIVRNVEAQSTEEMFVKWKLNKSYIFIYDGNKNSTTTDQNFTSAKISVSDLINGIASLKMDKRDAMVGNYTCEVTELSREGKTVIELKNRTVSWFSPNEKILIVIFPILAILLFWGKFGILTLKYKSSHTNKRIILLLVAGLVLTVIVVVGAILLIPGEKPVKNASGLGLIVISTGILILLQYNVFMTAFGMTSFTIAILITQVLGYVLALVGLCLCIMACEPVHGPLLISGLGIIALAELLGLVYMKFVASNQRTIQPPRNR
Kind of assay: in vivo receptor occupancy: NSG mice injected with GV3 on three consecutive days, spleen cells harvested 1 hr and 24 hrs after the last injection, free CD47 read by SIRPA-tetramer binding (FACS) on mouse splenocytes.

The target in assay [5] is T2, CD47 on the surface of GFP-luciferase+ …. The experiment in a line: flow cytometry competition on DLD1-Tg(GFP-Luc) cells (CD47+), competitor 50 nM biotinylated SIRP-alpha tetramer. On the technique in general: Flow cytometry measures light scatter and fluorescence of single cells or particles in a stream.
For assay [6], the target named is T5, CD47 on total splenic cells.
T5 construct: also called % occupied CD47
T5 sequence (Q61735 whole entry, species assumed, looked up): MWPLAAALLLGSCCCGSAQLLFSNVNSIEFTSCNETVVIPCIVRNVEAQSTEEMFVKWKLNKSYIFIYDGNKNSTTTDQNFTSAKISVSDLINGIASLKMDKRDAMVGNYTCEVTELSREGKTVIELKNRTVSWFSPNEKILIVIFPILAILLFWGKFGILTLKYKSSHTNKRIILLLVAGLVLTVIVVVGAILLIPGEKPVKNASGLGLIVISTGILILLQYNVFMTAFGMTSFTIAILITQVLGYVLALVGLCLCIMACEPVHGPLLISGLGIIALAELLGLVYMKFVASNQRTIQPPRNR
Kind of assay: in vivo receptor occupancy: NSG mice injected with GV3 on three consecutive days, spleen cells harvested 1 hr and 24 hrs after the last injection, free CD47 read by SIRPA-tetramer binding (FACS).

Another assay concerns the target T6, human PD-L1 (human, UniProt Q9NZQ7 19-239, limits assumed, biotinylated in Examples 4 and 5).
T6 construct: also called biotinylated human PD-L1
The experiment in a line: SPR, HGV3 held on chip-captured biotinylated human CD47, then PD-L1 injected; the PD-L1 concentration is not shown.

Data on one molecule can be found in patent publication US20180155405A1 (AB INITIO BIOTHERAPEUTICS, published 2018).

Where two headings read alike, the source gives them in different places.

T1 sequence (Q08722 other isoform, or with tags, fused parts or gaps C15G C15G limits assumed): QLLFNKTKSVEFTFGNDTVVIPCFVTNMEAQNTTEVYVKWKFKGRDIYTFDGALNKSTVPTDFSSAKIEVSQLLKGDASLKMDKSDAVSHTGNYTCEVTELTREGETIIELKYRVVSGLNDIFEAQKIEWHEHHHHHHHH
T6 sequence (Q9NZQ7 19-239 limits assumed): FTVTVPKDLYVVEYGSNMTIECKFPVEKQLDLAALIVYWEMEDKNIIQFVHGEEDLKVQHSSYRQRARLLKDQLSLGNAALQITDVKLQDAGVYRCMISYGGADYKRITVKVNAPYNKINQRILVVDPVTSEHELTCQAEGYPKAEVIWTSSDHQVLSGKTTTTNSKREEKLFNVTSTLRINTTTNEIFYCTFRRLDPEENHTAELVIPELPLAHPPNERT

B1: SIRP-gamma variant GV3 (designed binder)
chain: EEELQIIQPEKLLLVTVGKTATLHCTITSLFPVGPIQWFRGVGPGRVLIYNQKDGHFPRVTTVSDGTKRNNMDFSIRISSITPADVGTYYCVKFRKGSPEDVEFKSGPGTEMALGAKPSHHHHHHHH
notes: Monomers were made as MBP fusions in E. coli and MBP was removed with 3C protease; also called HGV3; human GV3
For B1, in assay [1], the equilibrium dissociation constant (Kd) (commonly the equilibrium constant for the complex coming apart) stood at 0.092 nM. In assay [1], the “dissociation half-life T1/2” value was approximately 0.733 h. In addition, the results for the “IC50 (read off the curve)” value in assay [2] and in assay [5] were approximately 1 nM and approximately 0.7 nM, respectively. Moreover, the RO half-life in assay [3] was approximately 30 h; in assay [4], approximately 5 h; in assay [6], approximately 10 h. The binding result with human PD-L1 is on record as “no binding”.
